Experimental data as given in PMC10793675 (mAbs, 2023).
Where a chain is given by its changes, count along the chain named. Blank lines part the entries; values can stand above or below the binder they belong to.

What was measured:
[1] = biological target: T1, biotinylated avi-tagged canine PD-1 soluble protein (canine, biotin); assay: ELISA
T1 chain: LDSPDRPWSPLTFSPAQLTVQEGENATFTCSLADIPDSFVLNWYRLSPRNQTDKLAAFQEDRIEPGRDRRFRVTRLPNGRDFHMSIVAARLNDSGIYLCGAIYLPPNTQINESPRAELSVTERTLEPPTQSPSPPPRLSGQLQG

[2] = biological target: canine PD-1 expressed on the surface of KTδ32 cells (Canis lupus familiaris, UniProt A0A090BAM7); assay: flow cytometry on cells
[3] = biological target: recombinant canine PD-1 protein, His tag (Canis lupus familiaris, UniProt A0A090BAM7); assay: SPR

- binding result [2]: binds
- binding result [1]: binds
B2: P3C6 soluble scFv (scFv, V domains shown)
VH: EVQLVQSGGDLVKPGGSLRLSCMASGFTFSKYGMSWVRQSPGKGLQWVADIAANGGTYYTDAVKGRFTISRDNAKNALYLQMDDLRAEDTAVYYCARWGGAPFDYWGQGTLVTVSS
VL: EIVMTQSPASLSLSQEEKVTITCRASQSVSSYLAWYQQKPGQAPKLLIYGTSNRATGVPSRFSGSGSGTDFSFTISSLEPEDVAVYYCQQGLQYPITFGKGTHLEIK

- binding result [2]: binds
B4: P3C6mut3.2 full-length canine IgGD (antibody, V domains shown)
VH: B2 VH with L11V, M23V, A77T, D83N, D84S
VL: B2 VL

Continued, binder first:

B1: P4B1 soluble scFv (scFv, V domains shown)
VH: EVQLVQSGGDVVKPGGSLRLSCVASGFTFNTYGMNWVRQSPGKGLQWVAAIANSGSTYYADAVRGRFTISRDNAKNTLYLQMNSLRAEDAAIYYCASGIWGDWFYYWGQGTLVTVSS
VL: SSVLTQPPSVSVSLGQTATISCSGESLTKYYAQWFQQKPGQAPMLVIYKDTERPSGIPDRFSGSSSGNTHTLTISGARAEDEADYYCESAVSADAVVFGGGTHLTVL
- binding result [1]: binds

B3: P3C6mut3.1 full-length canine IgGD (antibody, V domains shown)
VH: B2 VH with L11V, A77T, D83N, D84S
VL: B2 VL
- binding half-life [3]: 1.35 h
- koff [3]: 0.000143 s⁻¹
- kon [3]: 131000 M⁻¹ s⁻¹
